1 protein from publication PMC11018872, “Dynamic inter-domain transformations mediate the allosteric regulation of human 5, 10-methylenetetrahydrofolate reductase” (Nature Communications, 2024) can be followed below.

This data set concerns the molecule itself. Nature of the data set: negative stain EM; TEV-cleaved purified MTHFRFL, 50 nM in 20 mM HEPES pH 7.5, 200 mM NaCl with 5 mM SAM or 2.6 mM SAH; 2D classes.

B1: full-length human 5,10-methylenetetrahydrofolate reductase (MTHFRFL aa 1-656) (enzyme)
chain: not shown
modifications: multiply phosphorylated during its recombinant expression (N-terminal Ser/Thr-rich region; sites not given)
notes: human 5,10-methylenetetrahydrofolate reductase (MTHFR), full-length, aa 1-656, wild type; Homodimer; also called MTHFRFL^SAM; MTHFRFL^(SAH (symm)); source: baculovirus/insect cell system, SF9 cells, purified (Ni-NTA, Superdex 200 size exclusion); flag/His10 tag removed with TEV protease; not shown: FLAG, C-terminal, cleaved; His10, C-terminal, cleaved
In the case of B1, the binding result is “binds”.
